Data from publication PMC3534379.

What was measured:
[1] = target: human CD4 C-terminally fused to the C-terminal fragment of click beetle green (UniProt P01730)
[2] = target: human CD4 C-terminally fused to the C-terminal fragment of click beetle green (UniProt P01730); assay: click beetle luciferase complementation assay in living 293T cells; settings: read off a plot
[3] = target: ß-TrCP N-terminally fused to the C-terminal fragment of click beetle green (UniProt Q9Y297); assay: as above; settings: 36 h after transfection, equal amounts of plasmids, D-Luciferin added, read off a plot
[4] = + ß-TrCPΔF cotransfected (grey bars), parent: est. 14
[5] = without ß-TrCPΔF (coloured bars), parent: est. 13
[6] = + ß-TrCPΔF cotransfected (grey bars), parent: est. 20
[7] = without ß-TrCPΔF (coloured bars), parent: est. 8

Sequence of UniProt Q9Y297 (Q9Y297 whole entry, the tested form may be a part): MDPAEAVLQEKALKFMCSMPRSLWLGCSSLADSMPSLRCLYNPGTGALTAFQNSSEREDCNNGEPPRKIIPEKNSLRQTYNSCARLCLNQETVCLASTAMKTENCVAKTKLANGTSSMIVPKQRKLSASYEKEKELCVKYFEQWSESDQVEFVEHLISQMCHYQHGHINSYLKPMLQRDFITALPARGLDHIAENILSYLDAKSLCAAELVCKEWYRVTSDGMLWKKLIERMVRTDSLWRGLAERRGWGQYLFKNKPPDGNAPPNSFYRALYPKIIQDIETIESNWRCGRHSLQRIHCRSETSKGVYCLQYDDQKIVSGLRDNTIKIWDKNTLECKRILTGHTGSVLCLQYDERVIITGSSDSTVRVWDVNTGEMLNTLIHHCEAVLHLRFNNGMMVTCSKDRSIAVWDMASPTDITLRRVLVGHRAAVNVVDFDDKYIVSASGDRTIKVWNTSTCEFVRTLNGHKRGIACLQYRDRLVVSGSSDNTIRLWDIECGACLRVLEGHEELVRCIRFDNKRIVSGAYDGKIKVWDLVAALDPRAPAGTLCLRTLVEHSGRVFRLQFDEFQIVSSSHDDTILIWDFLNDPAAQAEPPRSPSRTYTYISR

Row | Substance | reduction in CD4 cell surface expression (293T cells, flow cytometry) [1] | response (RLU/s x 1.000) [2, 4] | response (RLU/s x 1.000) [2, 5] | response (RLU/s x 1.000) ([3]; parent: est. 4.7) | response (RLU/s x 1.000) [2, 6] | response (RLU/s x 1.000) [2, 7] | response (RLU/s x 1.000) ([3]; parent: est. 6.2)
1 | HIV-1 group N DJO0131 Vpu C-terminally fused to the N-terminal fragment of click beetle green (natural protein) | 2.8 fold | – | – | – | – | – | –
2 | HIV-1 group N YBF30 Vpu C-terminally fused to the N-terminal fragment of click beetle green (from UniProt O91085) S52A; S56A | – | 19 | 17 | 0.9 | – | – | –
3 | HIV-1 group N YBF30 Vpu C-terminally fused to the N-terminal fragment of click beetle green (from UniProt O91085) G51D | – | 12 | 18 | 1.3 | – | – | –
4 | HIV-1 group M NL4-3 Vpu C-terminally fused to the N-terminal fragment of click beetle green G53D | – | – | – | – | 22 | 30 | 2.2
5 | HIV-1 group M NL4-3 Vpu C-terminally fused to the N-terminal fragment of click beetle green S52A; S56A | – | – | – | – | 24 | 29 | 2.2
